Data from paper PMC9331583.

Target: apolipoprotein E (human (endogenous in Huh7.5 and HMC3)) (UniProt P02649)
Sequence of UniProt P02649 (P02649 19-317): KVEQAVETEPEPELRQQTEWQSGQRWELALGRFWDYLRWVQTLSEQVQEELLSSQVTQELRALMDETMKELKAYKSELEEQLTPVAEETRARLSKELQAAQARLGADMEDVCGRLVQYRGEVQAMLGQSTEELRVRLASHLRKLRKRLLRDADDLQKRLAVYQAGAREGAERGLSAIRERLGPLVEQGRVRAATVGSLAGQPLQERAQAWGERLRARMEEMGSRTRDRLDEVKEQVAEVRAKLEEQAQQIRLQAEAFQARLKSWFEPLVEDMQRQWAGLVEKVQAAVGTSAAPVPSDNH

Substance: Zika envelope glycoprotein (natural protein)
- decrease in infection of Huh7.5 cells (percent of cells positive for ZIKV envelope by FACS, relative to isotype Abs) by ZIKV particles pre-incubated with goat anti-ApoE Abs at 1.5 and 10 μg/mL: 60%
